US20210284724A1

Assays:
Assay in all cases: alanine scan, flow cytometry on transfected cells
[1] = molecular target: human CXCL13 F20A (human) (UniProt O43927)
[2] = molecular target: human CXCL13 F25A (human) (UniProt O43927)
[3] = molecular target: human CXCL13 P22A (human) (UniProt O43927)
[4] = molecular target: human CXCL13 R24A (human) (UniProt O43927)
human CXCL13 R24A (human), sequence (O43927 23-109 R46A): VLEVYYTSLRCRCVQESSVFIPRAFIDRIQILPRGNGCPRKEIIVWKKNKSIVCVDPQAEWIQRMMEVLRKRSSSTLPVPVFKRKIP

human CXCL13 P22A (human), sequence (O43927 23-109 P44A): as the sequence (O43927 23-109 R46A) above, with P22A, A24R counted along it
human CXCL13 F25A (human), sequence (O43927 23-109 F47A): as the sequence (O43927 23-109 R46A) above, with A24R, F25A counted along it
human CXCL13 F20A (human), sequence (O43927 23-109 F42A): as the sequence (O43927 23-109 R46A) above, with F20A, A24R counted along it

For Control Fab, the Binding reactivity (% WT) [1] was 110 % WT, the Binding reactivity (% WT) [2] was 127 % WT and the Binding reactivity (% WT) [3] was 97.4 % WT. The Binding reactivity (% WT) [4] was 88 % WT.
